Assay results published in article PMC4188699.
Several values for one entry are separate records, joined by “and”; a condition that tells them apart may be missing. Equal entries are not always repeated.

T1: human CSPα L115R, purified from E. coli (human), Q9H3Z4
T1 chain: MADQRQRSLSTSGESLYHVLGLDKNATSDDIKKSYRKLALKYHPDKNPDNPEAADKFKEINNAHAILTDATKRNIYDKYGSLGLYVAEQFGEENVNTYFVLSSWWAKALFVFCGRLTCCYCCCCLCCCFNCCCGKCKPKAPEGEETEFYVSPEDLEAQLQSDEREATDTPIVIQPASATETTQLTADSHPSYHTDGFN


Tests used:
[1] = target: Q9H3Z4; assay: SDS-PAGE of SDS-resistant oligomers; settings: other: SDS-PAGE of SDS-resistant oligomers
[2] = target: T1, human CSPα L115R, purified from E. coli …; assay: SDS-PAGE of SDS-resistant oligomers; settings: remark: other sources report otherwise

Row | stoichiometry N [2] | Binder | HMW oligomers, fold versus WT [1]
1 | – | human CSPα L116Δ, purified from E. coli (protein) MADQRQRSLSTSGESLYHVLGLDKNATSDDIKKSYRKLALKYHPDKNPDNPEAADKFKEINNAHAILTDATKRNIYDKYGSLGLYVAEQFGEENVNTYFVLSSWWAKALFVFCGLTCCYCCCCLCCCFNCCCGKCKPKAPEGEETEFYVSPEDLEAQLQSDEREATDTPIVIQPASATETTQLTADSHPSYHTDGFN | 13.2 ± 3.9 fold versus WT
2 | 2 and 4 | human CSPα L115R, purified from E. coli, Q9H3Z4 1-198 (natural protein) MADQRQRSLSTSGESLYHVLGLDKNATSDDIKKSYRKLALKYHPDKNPDNPEAADKFKEINNAHAILTDATKRNIYDKYGSLGLYVAEQFGEENVNTYFVLSSWWAKALFVFCGRLTCCYCCCCLCCCFNCCCGKCKPKAPEGEETEFYVSPEDLEAQLQSDEREATDTPIVIQPASATETTQLTADSHPSYHTDGFN | –
3 | – | human CSPα L115R, purified from E. coli (protein) MADQRQRSLSTSGESLYHVLGLDKNATSDDIKKSYRKLALKYHPDKNPDNPEAADKFKEINNAHAILTDATKRNIYDKYGSLGLYVAEQFGEENVNTYFVLSSWWAKALFVFCGRLTCCYCCCCLCCCFNCCCGKCKPKAPEGEETEFYVSPEDLEAQLQSDEREATDTPIVIQPASATETTQLTADSHPSYHTDGFN | 58.9 ± 5.9 fold versus WT
